We go through 94 variants from the supplement of paper PMC10567573.

First the molecules themselves.
B1: LRRC45 (parent)
chain: FQTRQEMTSMSAELKMRAIQAEER
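Note: lentivirally expressed fusions sorted by FACS into six bins by GFP to DsRed ratio, PSI derived from sequencing read proportions per bin multiplied by bin number.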

The variants in the data set derive from B1. Briefly: protein stability index of a GFP-peptide fusion (GPS, HEK-293T) (PSI 1-6); higher = more stable. Particulars: c terminus: a fixed tail appended.
Take FQTRQEMTSMSLELKMRAIQAEER [A12L]: the protein stability index amounted to 3.92.
The same measure for FQTRQEMTSMSWELKMRAIQAEER [A12W]: 2.04; for FQTRQEMTSMSKELKMRAIQAEER [A12K]: 3.92.
As for FQTRQEMTSMSNELKMRAIQAEER [A12N], the protein stability index was found to be 3.3.
Next, FQTRQEMTSMSMELKMRAIQAEER [A12M]: 3.72.
The same measure for FQTRQEMTSMSFELKMRAIQAEER [A12F]: 3.3; for FQTRQEMTSMSEELKMRAIQAEER [A12E]: 4.44; for FQTRQEMTSMSGELKMRAIQAEER [A12G]: 4.44.
As for FQTRQEMTSMSRELKMRAIQAEER [A12R], the protein stability index was determined as 3.73.
The same measure for FQTRQEMTSMSVELKMRAIQAEER [A12V]: 3.47; for FQTRQEMTSMSPELKMRAIQAEER [A12P]: 4.28; for FQTRQEMTSMSYELKMRAIQAEER [A12Y]: 3.39.
The same measure for FQTRQEMTSMSHELKMRAIQAEER [A12H]: 4.12; for FQTRQEMTSMSIELKMRAIQAEER [A12I]: 3.3; for FQTRQEMTSMSSELKMRAIQAEER [A12S]: 4.24.
The same measure for FQTRQEMTSMSCELKMRAIQAEER [A12C]: 3.71.
Take FQTRQEMTSMSQELKMRAIQAEER [A12Q]: the protein stability index came to 4.29.
The same measure for FQTRQEMTSMSTELKMRAIQAEER [A12T]: 3.94; for FQTRQEMTSMDAELKMRAIQAEER [S11D]: 4.54; for FQTRQEMTSMNAELKMRAIQAEER [S11N]: 3.92.
Take FQTRQEMTSMWAELKMRAIQAEER [S11W]: the protein stability index stood at 1.96.
The same measure for FQTRQEMTSMKAELKMRAIQAEER [S11K]: 3.67; for FQTRQEMTSMLAELKMRAIQAEER [S11L]: 3.85; for FQTRQEMTSMMAELKMRAIQAEER [S11M]: 3.68.
In the case of FQTRQEMTSMFAELKMRAIQAEER [S11F], the protein stability index was found to be 4.22.
With FQTRQEMTSMCAELKMRAIQAEER [S11C], the protein stability index was 3.63.
Next, FQTRQEMTSMPAELKMRAIQAEER [S11P]: 3.73.
The same measure for FQTRQEMTSMIAELKMRAIQAEER [S11I]: 3.09; for FQTRQEMTSMAAELKMRAIQAEER [S11A]: 3.88.
The same measure for FQTRQEMTSMHAELKMRAIQAEER [S11H]: 4.43.
With FQTRQEMTSMGAELKMRAIQAEER [S11G], the protein stability index is 3.97.
In the case of FQTRQEMTSMQAELKMRAIQAEER [S11Q], the protein stability index turned out to be 4.16.
The same measure for FQTRQEMTSMRAELKMRAIQAEER [S11R]: 3.83.
Turning to FQTRQEMTSMVAELKMRAIQAEER [S11V], the protein stability index was found to be 3.74.
The same measure for FQTRQEMTSMYAELKMRAIQAEER [S11Y]: 2.93; for FQTRQEMTSMTAELKMRAIQAEER [S11T]: 3.73; for FQTRQEMTSMEAELKMRAIQAEER [S11E]: 3.98.
Next, FQTRQEMTSMSAEIKMRAIQAEER [L14I]: 4.13; FQTRQEMTSMSAEEKMRAIQAEER [L14E]: 3.99; FQTRQEMTSMSAEWKMRAIQAEER [L14W]: 3.2.
On to FQTRQEMTSMSAEMKMRAIQAEER [L14M], for which the protein stability index came out at 3.83.
The same measure for FQTRQEMTSMSAETKMRAIQAEER [L14T]: 4.38; for FQTRQEMTSMSAECKMRAIQAEER [L14C]: 3.72.
Take FQTRQEMTSMSAEFKMRAIQAEER [L14F]: the protein stability index came to 3.21.
The same measure for FQTRQEMTSMSAESKMRAIQAEER [L14S]: 4.11.
Next, FQTRQEMTSMSAERKMRAIQAEER [L14R]: 4.23.
Next, FQTRQEMTSMSAEQKMRAIQAEER [L14Q]: 4.28; FQTRQEMTSMSAEDKMRAIQAEER [L14D]: 3.89.
As for FQTRQEMTSMSAEAKMRAIQAEER [L14A], the protein stability index is 4.16.
The same measure for FQTRQEMTSMSAEHKMRAIQAEER [L14H]: 4.34; for FQTRQEMTSMSAEPKMRAIQAEER [L14P]: 3.99; for FQTRQEMTSMSAEGKMRAIQAEER [L14G]: 4.24.
For FQTRQEMTSMSAENKMRAIQAEER [L14N], the protein stability index was 4.18.
Next, FQTRQEMTSMSAEYKMRAIQAEER [L14Y]: 3.74; FQTRQEMTSMSAEKKMRAIQAEER [L14K]: 4.12.
As for FQTRQEMTSMSAEVKMRAIQAEER [L14V], the protein stability index was found to be 4.21.
Next, FQTRQEMTSMSAELKDRAIQAEER [M16D]: 4.38.
The same measure for FQTRQEMTSMSAELKARAIQAEER [M16A]: 4.39; for FQTRQEMTSMSAELKERAIQAEER [M16E]: 4.68; for FQTRQEMTSMSAELKGRAIQAEER [M16G]: 4.
Regarding FQTRQEMTSMSAELKTRAIQAEER [M16T], the protein stability index was 3.96.
The same measure for FQTRQEMTSMSAELKQRAIQAEER [M16Q]: 4.03; for FQTRQEMTSMSAELKYRAIQAEER [M16Y]: 3.83.
On to FQTRQEMTSMSAELKNRAIQAEER [M16N], for which the protein stability index was determined as 4.16.
The same measure for FQTRQEMTSMSAELKWRAIQAEER [M16W]: 3.66; for FQTRQEMTSMSAELKHRAIQAEER [M16H]: 3.88.
As to FQTRQEMTSMSAELKVRAIQAEER [M16V], the protein stability index came out at 3.99.
Next, FQTRQEMTSMSAELKCRAIQAEER [M16C]: 3.79.
The same measure for FQTRQEMTSMSAELKIRAIQAEER [M16I]: 3.52; for FQTRQEMTSMSAELKSRAIQAEER [M16S]: 4.37.
Next, FQTRQEMTSMSAELKLRAIQAEER [M16L]: 4.24; FQTRQEMTSMSAELKFRAIQAEER [M16F]: 3.75.
In the case of FQTRQEMTSMSAELKKRAIQAEER [M16K], the protein stability index is 4.36.
In the case of FQTRQEMTSMSAELKRRAIQAEER [M16R], the protein stability index was determined as 4.21.
The same measure for FQTRQEMTSMSAELKPRAIQAEER [M16P]: 3.98.
The same measure for FQTRQEMTFMSAELKMRAIQAEER [S9F]: 3.02.
Next, FQTRQEMTRMSAELKMRAIQAEER [S9R]: 3.78.
As to FQTRQEMTPMSAELKMRAIQAEER [S9P], the protein stability index came to 4.01.
The same measure for FQTRQEMTTMSAELKMRAIQAEER [S9T]: 3.96; for FQTRQEMTYMSAELKMRAIQAEER [S9Y]: 3.28; for FQTRQEMTLMSAELKMRAIQAEER [S9L]: 4.12.
Next, FQTRQEMTIMSAELKMRAIQAEER [S9I]: 3.58; FQTRQEMTVMSAELKMRAIQAEER [S9V]: 3.51.
The same measure for FQTRQEMTGMSAELKMRAIQAEER [S9G]: 4.11; for FQTRQEMTDMSAELKMRAIQAEER [S9D]: 4.05; for FQTRQEMTHMSAELKMRAIQAEER [S9H]: 3.84.
In the case of FQTRQEMTCMSAELKMRAIQAEER [S9C], the protein stability index was determined as 3.41.
The same measure for FQTRQEMTMMSAELKMRAIQAEER [S9M]: 4.17; for FQTRQEMTKMSAELKMRAIQAEER [S9K]: 4.32.
Next, FQTRQEMTQMSAELKMRAIQAEER [S9Q]: 3.73; FQTRQEMTWMSAELKMRAIQAEER [S9W]: 2.32; FQTRQEMTNMSAELKMRAIQAEER [S9N]: 4.28.
The same measure for FQTRQEMTEMSAELKMRAIQAEER [S9E]: 4.49.
On to FQTRQEMTAMSAELKMRAIQAEER [S9A], for which the protein stability index amounted to 4.43.
